According to patent US20240270846A1 (published 2024):

biological target: T1, CD3 epsilon homodimer protein (UniProt P07766 23-126); test: SPR, CD3e homodimer on chip;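 also: surface plasmon resonance at 25 degrees C, antibodies flowed as analyte over CD3 epsilon homodimer amine-coupled to a CM4 chip, running buffer HBS-EP+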
T1 construct: also called CD3 (CD3 epsilon)
T1 sequence (P07766 23-126): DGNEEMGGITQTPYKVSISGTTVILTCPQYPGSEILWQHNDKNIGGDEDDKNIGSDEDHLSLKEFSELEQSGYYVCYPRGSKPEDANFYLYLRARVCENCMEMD

| Binder | ratio of amounts bound (altered form / unaltered GLS3000 antibody) |
| --- | --- |
| GLS3000 H27dQ one-arm antibody (H chain CE115HA000) (antibody, human IgG1, kappa, L234A L235A, N297A, name in Kabat numbering, one-arm antibody) heavy: QVQLVESGGGVVQPGRSLRLSCAASGFTFSNAWMHWVRQAPGKGLEWVAQIKAKSNNYATYYAESVKGRFTISRDDSKNSLYLQMNSLKTEDTAVYYCRYVHYGAYYGVDAWGQGTTVTVSSASTKGPSVFPLAPSSKSTSGGTAALGCLVKDYFPEPVTVSWNSGALTSGVHTFPAVLQSSGLYSLSSVVTVPSSSLGTQTYICNVNHKPSNTKVDKKVEPKSCDKTHTCPPCPAPEAAGGPSVFLFPPKPKDTLMISRTPEVTCVVVDVSHEDPEVKFNWYVDGVEVHNAKTKPREEQYASTYRVVSVLTVLHQDWLNGKEYKCKVSNKALPAPIEKTISKAKGQPREPQVYTLPPSRCELTKNQVSLSCAVKGFYPSDIAVEWESNGQPENNYKTTPPVLDSDGSFFLVSKLTVDKSRWQQGNVFSCSVMHEALHNHYTQKSLSLSPDYKDDDDK EPKSSDKTHTCPPCPAPELLGGPSVFLFPPKPKDTLMISRTPEVTCVVVDVSHEDPEVKFNWYVDGVEVHNAKTKPREEQYNSTYRVVSVLTVLHQDWLNGKEYKCKVSNKALPAPIEKTISKAKGQPREPQVCTLPPSRDELTKNQVSLWCLVKGFYPSDIAVEWESNGQPENNYKTTPPVLDSDGSFFLYSKLTVDKSRWQQGNVFSCSVMHEALHNRYTQKSLSLSP light: DIVMTQSPLSLPVTPGEPASISCRSSQSLVQSNRNTYLHWYQQKPGQAPRLLIYKVSNRFSGVPDRFSGSGSGTDFTLKISRVEAEDVGVYYCGQGTQVPYTFGQGTKLEIKRTVAAPSVFIFPPSDEQLKSGTASVVCLLNNFYPREAKVQWKVDNALQSGNSQESVTEQDSKDSTYSLSSTLTLSKADYEKHKVYACEVTHQGLSSPVTKSFNRGEC | 0.25 |
| GLS3000 H27dR one-arm antibody (H chain CE115HA000) (antibody, human IgG1, kappa, L234A L235A, N297A, name in Kabat numbering, one-arm antibody) heavy: QVQLVESGGGVVQPGRSLRLSCAASGFTFSNAWMHWVRQAPGKGLEWVAQIKAKSNNYATYYAESVKGRFTISRDDSKNSLYLQMNSLKTEDTAVYYCRYVHYGAYYGVDAWGQGTTVTVSSASTKGPSVFPLAPSSKSTSGGTAALGCLVKDYFPEPVTVSWNSGALTSGVHTFPAVLQSSGLYSLSSVVTVPSSSLGTQTYICNVNHKPSNTKVDKKVEPKSCDKTHTCPPCPAPEAAGGPSVFLFPPKPKDTLMISRTPEVTCVVVDVSHEDPEVKFNWYVDGVEVHNAKTKPREEQYASTYRVVSVLTVLHQDWLNGKEYKCKVSNKALPAPIEKTISKAKGQPREPQVYTLPPSRCELTKNQVSLSCAVKGFYPSDIAVEWESNGQPENNYKTTPPVLDSDGSFFLVSKLTVDKSRWQQGNVFSCSVMHEALHNHYTQKSLSLSPDYKDDDDK EPKSSDKTHTCPPCPAPELLGGPSVFLFPPKPKDTLMISRTPEVTCVVVDVSHEDPEVKFNWYVDGVEVHNAKTKPREEQYNSTYRVVSVLTVLHQDWLNGKEYKCKVSNKALPAPIEKTISKAKGQPREPQVCTLPPSRDELTKNQVSLWCLVKGFYPSDIAVEWESNGQPENNYKTTPPVLDSDGSFFLYSKLTVDKSRWQQGNVFSCSVMHEALHNRYTQKSLSLSP light: DIVMTQSPLSLPVTPGEPASISCRSSQSLVRSNRNTYLHWYQQKPGQAPRLLIYKVSNRFSGVPDRFSGSGSGTDFTLKISRVEAEDVGVYYCGQGTQVPYTFGQGTKLEIKRTVAAPSVFIFPPSDEQLKSGTASVVCLLNNFYPREAKVQWKVDNALQSGNSQESVTEQDSKDSTYSLSSTLTLSKADYEKHKVYACEVTHQGLSSPVTKSFNRGEC | 0.31 |
| GLS3000 H27dS one-arm antibody (H chain CE115HA000) (antibody, human IgG1, kappa, L234A L235A, N297A, name in Kabat numbering, one-arm antibody) heavy: QVQLVESGGGVVQPGRSLRLSCAASGFTFSNAWMHWVRQAPGKGLEWVAQIKAKSNNYATYYAESVKGRFTISRDDSKNSLYLQMNSLKTEDTAVYYCRYVHYGAYYGVDAWGQGTTVTVSSASTKGPSVFPLAPSSKSTSGGTAALGCLVKDYFPEPVTVSWNSGALTSGVHTFPAVLQSSGLYSLSSVVTVPSSSLGTQTYICNVNHKPSNTKVDKKVEPKSCDKTHTCPPCPAPEAAGGPSVFLFPPKPKDTLMISRTPEVTCVVVDVSHEDPEVKFNWYVDGVEVHNAKTKPREEQYASTYRVVSVLTVLHQDWLNGKEYKCKVSNKALPAPIEKTISKAKGQPREPQVYTLPPSRCELTKNQVSLSCAVKGFYPSDIAVEWESNGQPENNYKTTPPVLDSDGSFFLVSKLTVDKSRWQQGNVFSCSVMHEALHNHYTQKSLSLSPDYKDDDDK EPKSSDKTHTCPPCPAPELLGGPSVFLFPPKPKDTLMISRTPEVTCVVVDVSHEDPEVKFNWYVDGVEVHNAKTKPREEQYNSTYRVVSVLTVLHQDWLNGKEYKCKVSNKALPAPIEKTISKAKGQPREPQVCTLPPSRDELTKNQVSLWCLVKGFYPSDIAVEWESNGQPENNYKTTPPVLDSDGSFFLYSKLTVDKSRWQQGNVFSCSVMHEALHNRYTQKSLSLSP light: DIVMTQSPLSLPVTPGEPASISCRSSQSLVSSNRNTYLHWYQQKPGQAPRLLIYKVSNRFSGVPDRFSGSGSGTDFTLKISRVEAEDVGVYYCGQGTQVPYTFGQGTKLEIKRTVAAPSVFIFPPSDEQLKSGTASVVCLLNNFYPREAKVQWKVDNALQSGNSQESVTEQDSKDSTYSLSSTLTLSKADYEKHKVYACEVTHQGLSSPVTKSFNRGEC | 0.32 |
| GLS3000 H27dT one-arm antibody (H chain CE115HA000) (antibody, human IgG1, kappa, L234A L235A, N297A, name in Kabat numbering, one-arm antibody) heavy: QVQLVESGGGVVQPGRSLRLSCAASGFTFSNAWMHWVRQAPGKGLEWVAQIKAKSNNYATYYAESVKGRFTISRDDSKNSLYLQMNSLKTEDTAVYYCRYVHYGAYYGVDAWGQGTTVTVSSASTKGPSVFPLAPSSKSTSGGTAALGCLVKDYFPEPVTVSWNSGALTSGVHTFPAVLQSSGLYSLSSVVTVPSSSLGTQTYICNVNHKPSNTKVDKKVEPKSCDKTHTCPPCPAPEAAGGPSVFLFPPKPKDTLMISRTPEVTCVVVDVSHEDPEVKFNWYVDGVEVHNAKTKPREEQYASTYRVVSVLTVLHQDWLNGKEYKCKVSNKALPAPIEKTISKAKGQPREPQVYTLPPSRCELTKNQVSLSCAVKGFYPSDIAVEWESNGQPENNYKTTPPVLDSDGSFFLVSKLTVDKSRWQQGNVFSCSVMHEALHNHYTQKSLSLSPDYKDDDDK EPKSSDKTHTCPPCPAPELLGGPSVFLFPPKPKDTLMISRTPEVTCVVVDVSHEDPEVKFNWYVDGVEVHNAKTKPREEQYNSTYRVVSVLTVLHQDWLNGKEYKCKVSNKALPAPIEKTISKAKGQPREPQVCTLPPSRDELTKNQVSLWCLVKGFYPSDIAVEWESNGQPENNYKTTPPVLDSDGSFFLYSKLTVDKSRWQQGNVFSCSVMHEALHNRYTQKSLSLSP light: DIVMTQSPLSLPVTPGEPASISCRSSQSLVTSNRNTYLHWYQQKPGQAPRLLIYKVSNRFSGVPDRFSGSGSGTDFTLKISRVEAEDVGVYYCGQGTQVPYTFGQGTKLEIKRTVAAPSVFIFPPSDEQLKSGTASVVCLLNNFYPREAKVQWKVDNALQSGNSQESVTEQDSKDSTYSLSSTLTLSKADYEKHKVYACEVTHQGLSSPVTKSFNRGEC | 0.29 |
| GLS3000 H27dV one-arm antibody (H chain CE115HA000) (antibody, human IgG1, kappa, L234A L235A, N297A, name in Kabat numbering, one-arm antibody) heavy: QVQLVESGGGVVQPGRSLRLSCAASGFTFSNAWMHWVRQAPGKGLEWVAQIKAKSNNYATYYAESVKGRFTISRDDSKNSLYLQMNSLKTEDTAVYYCRYVHYGAYYGVDAWGQGTTVTVSSASTKGPSVFPLAPSSKSTSGGTAALGCLVKDYFPEPVTVSWNSGALTSGVHTFPAVLQSSGLYSLSSVVTVPSSSLGTQTYICNVNHKPSNTKVDKKVEPKSCDKTHTCPPCPAPEAAGGPSVFLFPPKPKDTLMISRTPEVTCVVVDVSHEDPEVKFNWYVDGVEVHNAKTKPREEQYASTYRVVSVLTVLHQDWLNGKEYKCKVSNKALPAPIEKTISKAKGQPREPQVYTLPPSRCELTKNQVSLSCAVKGFYPSDIAVEWESNGQPENNYKTTPPVLDSDGSFFLVSKLTVDKSRWQQGNVFSCSVMHEALHNHYTQKSLSLSPDYKDDDDK EPKSSDKTHTCPPCPAPELLGGPSVFLFPPKPKDTLMISRTPEVTCVVVDVSHEDPEVKFNWYVDGVEVHNAKTKPREEQYNSTYRVVSVLTVLHQDWLNGKEYKCKVSNKALPAPIEKTISKAKGQPREPQVCTLPPSRDELTKNQVSLWCLVKGFYPSDIAVEWESNGQPENNYKTTPPVLDSDGSFFLYSKLTVDKSRWQQGNVFSCSVMHEALHNRYTQKSLSLSP light: DIVMTQSPLSLPVTPGEPASISCRSSQSLVVSNRNTYLHWYQQKPGQAPRLLIYKVSNRFSGVPDRFSGSGSGTDFTLKISRVEAEDVGVYYCGQGTQVPYTFGQGTKLEIKRTVAAPSVFIFPPSDEQLKSGTASVVCLLNNFYPREAKVQWKVDNALQSGNSQESVTEQDSKDSTYSLSSTLTLSKADYEKHKVYACEVTHQGLSSPVTKSFNRGEC | 0.3 |
| GLS3000 H27dW one-arm antibody (H chain CE115HA000) (antibody, human IgG1, kappa, L234A L235A, N297A, name in Kabat numbering, one-arm antibody) heavy: QVQLVESGGGVVQPGRSLRLSCAASGFTFSNAWMHWVRQAPGKGLEWVAQIKAKSNNYATYYAESVKGRFTISRDDSKNSLYLQMNSLKTEDTAVYYCRYVHYGAYYGVDAWGQGTTVTVSSASTKGPSVFPLAPSSKSTSGGTAALGCLVKDYFPEPVTVSWNSGALTSGVHTFPAVLQSSGLYSLSSVVTVPSSSLGTQTYICNVNHKPSNTKVDKKVEPKSCDKTHTCPPCPAPEAAGGPSVFLFPPKPKDTLMISRTPEVTCVVVDVSHEDPEVKFNWYVDGVEVHNAKTKPREEQYASTYRVVSVLTVLHQDWLNGKEYKCKVSNKALPAPIEKTISKAKGQPREPQVYTLPPSRCELTKNQVSLSCAVKGFYPSDIAVEWESNGQPENNYKTTPPVLDSDGSFFLVSKLTVDKSRWQQGNVFSCSVMHEALHNHYTQKSLSLSPDYKDDDDK EPKSSDKTHTCPPCPAPELLGGPSVFLFPPKPKDTLMISRTPEVTCVVVDVSHEDPEVKFNWYVDGVEVHNAKTKPREEQYNSTYRVVSVLTVLHQDWLNGKEYKCKVSNKALPAPIEKTISKAKGQPREPQVCTLPPSRDELTKNQVSLWCLVKGFYPSDIAVEWESNGQPENNYKTTPPVLDSDGSFFLYSKLTVDKSRWQQGNVFSCSVMHEALHNRYTQKSLSLSP light: DIVMTQSPLSLPVTPGEPASISCRSSQSLVWSNRNTYLHWYQQKPGQAPRLLIYKVSNRFSGVPDRFSGSGSGTDFTLKISRVEAEDVGVYYCGQGTQVPYTFGQGTKLEIKRTVAAPSVFIFPPSDEQLKSGTASVVCLLNNFYPREAKVQWKVDNALQSGNSQESVTEQDSKDSTYSLSSTLTLSKADYEKHKVYACEVTHQGLSSPVTKSFNRGEC | 0.39 |
